Key:
[1] = target: T1, cleaved high molecular weight kininogen (HMWK) (human, UniProt P01042 19-380; P01042 390-644); assay: ELISA on coated M004-B04, 2-chain HMWK titrated after preincubation of the plate with GCP28 peptide at 250 µg/mL; value = C of the printed 4-P fit; triangles, curve on the control's (the callout box on the graph names this curve HKH20: see recheck)
T1 construct: also called cleaved HMWK; 2-chain HMWK
T1 sequence 1: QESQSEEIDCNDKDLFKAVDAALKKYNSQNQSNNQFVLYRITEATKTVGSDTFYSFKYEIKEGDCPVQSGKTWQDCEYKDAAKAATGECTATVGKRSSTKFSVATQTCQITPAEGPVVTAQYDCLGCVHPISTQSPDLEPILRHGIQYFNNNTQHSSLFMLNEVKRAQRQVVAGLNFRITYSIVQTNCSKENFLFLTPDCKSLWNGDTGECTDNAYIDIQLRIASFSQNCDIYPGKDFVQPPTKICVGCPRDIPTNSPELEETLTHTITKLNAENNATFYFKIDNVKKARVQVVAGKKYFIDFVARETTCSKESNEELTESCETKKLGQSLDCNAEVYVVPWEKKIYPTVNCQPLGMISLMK
T1 sequence 2: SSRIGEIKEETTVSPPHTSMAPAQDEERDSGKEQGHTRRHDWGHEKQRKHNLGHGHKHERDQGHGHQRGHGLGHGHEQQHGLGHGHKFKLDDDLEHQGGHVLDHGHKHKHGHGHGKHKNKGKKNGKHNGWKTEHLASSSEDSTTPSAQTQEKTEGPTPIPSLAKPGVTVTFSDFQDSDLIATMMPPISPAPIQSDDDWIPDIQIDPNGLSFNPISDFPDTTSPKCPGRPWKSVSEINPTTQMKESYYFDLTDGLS
Protocol: Following plate washing with PBST, a mixture of 2 mouse monoclonal antibodies (11H05 and 13B12) at 1 μg/mL in 2-chain HMWK assay buffer were added for 1 hour at room temperature. Unbound detection antibodies were washed and a 1:2000 dilution of goat anti-mouse secondary antibody conjugated to horseradish peroxidase (HRP) was added. The assay containing the secondary antibody was incubated for 1 hour at room temperature, and unbound secondary antibody was removed by washing with 2-chain HMWK assay buffer. Signal was detected by the addition of 3,3′,5,5′-tetramethylbenzidine (TMB), an HRP substrate. The reaction was stopped with phosphoric acid. Hydrolysis of a TMB substrate was detected using a microplate reader at 450 nm-630 nm (FIG. 3). […] Using these immunoassay conditions, specifically binding to cleaved HMWK was detected.
To perform the assay, the kininogen peptides were diluted to 250 μg/mL and allowed to preincubate on assay plate. Then, purified 2-chain HMWK in deficient human plasma was diluted 160 and then added to plate.

[2] = target: T1, cleaved high molecular weight kininogen …; assay: sandwich ELISA with coated Fab; value = C, midpoint of the printed 4-P fit; 2-chain HMWK spiked into SBT assay buffer
From the text: (§1) Purified cleaved HMWK was spiked into SBT assay buffer (open circles), SBT assay buffer and analyzed in the presence of 10% plasma (squares), or HMWK-deficient plasma and analyzed in the presence of 10% plasma (triangles). Purified cleaved HMWK was also spiked into assay buffer and analyzed in the presence of 2.5% plasma (diamonds) or HMWK deficient plasma and analyzed in the presence of 2.5% plasma (closed circles). The y-axis presents the ELISA signal in absorbance units, and the x-axis presents the concentration of kininogen in μg/mL.
(§2) The following day, the plate was washed and then blocked with 2% BSA (Protease/IgG free) in PBS buffer. Following a wash, samples containing cleaved HMWK in 0.1% BSA buffer in PBS with 0.05% Tween-20 (2-Chain HMWK assay buffer). Purified protein standards (e.g., 2-chain HMWK, intact HMWK or LMWK) were spiked into HMWK-deficient plasma and diluted 1:320 in 2-chain HMWK assay buffer. Following plate washing with PBST, a mixture of 2 mouse monoclonal antibodies (11H05 and 13B12) at 1 μg/mL in 2-chain HMWK assay buffer were added for 1 hour at room temperature. […] Signal was detected by the addition of 3,3′,5,5′-tetramethylbenzidine (TMB), an HRP substrate. […] Hydrolysis of a TMB substrate was detected using a microplate reader at 450 nm-630 nm (FIG. 3). […] Using these immunoassay conditions, specifically binding to cleaved HMWK was detected.

[3] = target: T1, cleaved high molecular weight kininogen …; assay: 2-chain HMWK sandwich ELISA standard curve, citrated plasma spiked with 2-chain HMWK, 10% final dilution; capture Fab M0004-B04 as in FIG. 12 B
[4] = target: T1, cleaved high molecular weight kininogen …; assay: sandwich ELISA with coated Fab; value = C, midpoint of the printed 4-P fit; 2-chain HMWK spiked into HMWK-deficient plasma, analysed in 10% plasma
From the text: as §1, §2

[5] = target: T1, cleaved high molecular weight kininogen …; assay: sandwich ELISA: Fab coated on 96-well plate, kininogen titrated, detection 11H05 + 13B12 and goat anti-mouse-HRP; value = C, midpoint of the printed 4-P fit; 2-chain HMWK spiked into SBT assay buffer
From the text: Purified cleaved HMWK was spiked into SBT assay buffer (circles) or HMWK-deficient plasma (squares). Purified intact HMWK was spiked into SBT assay buffer (triangles). Purified LMWK was spiked into SBT assay buffer (diamonds). The y-axis presents the ELISA signal in absorbance units, and the x-axis presents the concentration of kininogen in μg/mL.
as §2, with “temperature. Unbound detection antibodies were washed and a 1:2000 dilution of goat anti-mouse secondary antibody conjugated to horseradish peroxidase (HRP) was added.” for “temperature.”

[6] = target: T1, cleaved high molecular weight kininogen …; assay: sandwich ELISA with coated Fab; value = C, midpoint of the printed 4-P fit; 2-chain HMWK spiked into HMWK-deficient plasma, analysed in 2.5% plasma
From the text: as §1, §2

B1: 559B-M0004-B04 (Fab, V domains shown)
VH: EVQLLESGGGLVQPGGSLRLSCAASGFTFSFYVMVWVRQAPGKGLEWVSGISPSGGNTAYADSVKGRFTISRDNSKNTLYLQMNSLRAEDTAVYYCARKLFYYDDTKGYFDFWGQGTLVTVSS
VL: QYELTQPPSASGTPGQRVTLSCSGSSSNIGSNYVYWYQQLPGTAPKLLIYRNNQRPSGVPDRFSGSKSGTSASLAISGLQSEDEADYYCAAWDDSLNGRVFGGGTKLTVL
notes: also called M004-B04
EC50 [1]: 0.00941 µg/mL | EC50 [2]: 226 µg/mL | EC50 (read off the curve) [3]: ~0.1 µg/mL | EC50 [4]: 165 µg/mL | EC50 [5]: 235 µg/mL | EC50 [6]: 184 µg/mL

Reference: US20210270842A1 (DYAX, published 2021)
